Measured values taken from paper PMC5053906.

What was measured:
[1] = biological target: full length HA-mGluR2 (rat) (UniProt P31421); assay: co-IP
[2] = biological target: chimera with the ECD of mGluR1 and the TMD (and C-terminal) of mGluR2 (rat); assay: single molecule subunit counting
[3] = biological target: chimera with the ECD of mGluR1 and the TMD (and C-terminal) of mGluR2 (rat); assay: single molecule pull-down
[4] = biological target: chimera with the ECD of mGluR2 and the TMD (and C-terminal) of mGluR1 (rat); assay: single molecule subunit counting
[5] = biological target: chimera with the ECD of mGluR2 and the TMD (and C-terminal) of mGluR1 (rat); assay: single molecule pull-down
[6] = biological target: mGluR2-GFP truncated by removing the entire extracellular domain (rat); assay: single molecule pull-down

mGluR2-GFP truncated by removing the entire extracellular domain (domain or fragment), sequence (P31421 19-872): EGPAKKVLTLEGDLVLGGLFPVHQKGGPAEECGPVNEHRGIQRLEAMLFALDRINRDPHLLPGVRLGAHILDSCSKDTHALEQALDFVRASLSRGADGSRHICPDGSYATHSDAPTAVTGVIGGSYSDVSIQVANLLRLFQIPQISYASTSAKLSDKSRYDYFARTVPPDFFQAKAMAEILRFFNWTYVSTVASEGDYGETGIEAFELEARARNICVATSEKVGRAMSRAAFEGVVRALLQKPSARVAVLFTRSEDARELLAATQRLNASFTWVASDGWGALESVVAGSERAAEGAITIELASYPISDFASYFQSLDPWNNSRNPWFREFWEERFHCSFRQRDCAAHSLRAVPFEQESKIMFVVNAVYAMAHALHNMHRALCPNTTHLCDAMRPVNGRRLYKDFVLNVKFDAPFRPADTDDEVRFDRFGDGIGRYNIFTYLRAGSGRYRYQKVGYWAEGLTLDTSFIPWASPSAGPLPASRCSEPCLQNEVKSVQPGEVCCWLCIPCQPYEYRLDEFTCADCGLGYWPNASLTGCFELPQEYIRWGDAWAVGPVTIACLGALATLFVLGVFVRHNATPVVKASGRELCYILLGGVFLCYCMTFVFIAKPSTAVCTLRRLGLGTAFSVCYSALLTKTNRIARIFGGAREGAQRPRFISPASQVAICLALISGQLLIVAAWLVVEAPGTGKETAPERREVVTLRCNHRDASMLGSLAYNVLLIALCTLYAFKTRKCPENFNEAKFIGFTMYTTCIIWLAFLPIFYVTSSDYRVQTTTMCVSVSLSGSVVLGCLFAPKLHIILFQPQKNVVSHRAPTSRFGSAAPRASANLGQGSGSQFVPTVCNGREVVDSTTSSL
full length HA-mGluR2 (rat), sequence (P31421 19-872): as above
GFP-tagged isolated ligand binding domain of mGluR2 (domain or fragment), sequence (P31421 19-872): as above

Work on “GFP-tagged isolated ligand binding domain of mGluR2 (domain or fragment)” yielded a percent of spots bleaching in a single step [1] of 92.4%.
“chimera with the ECD of mGluR1 and the TMD (and C-terminal) of mGluR2 (receptor)” was tested, and the stoichiometry N [2] was 2 and the stoichiometry N [3] was 2.
Work on “chimera with the ECD of mGluR2 and the TMD (and C-terminal) of mGluR1 (receptor)” yielded a stoichiometry N [4] of 2 and a stoichiometry N [5] of 2.
With “mGluR2-GFP truncated by removing the entire extracellular domain (domain or fragment)” the percent of spots bleaching in a single step [1] was 89.6% and the percent of spots bleaching in two steps [6] was 30%.
